Source: publication PMC8141032 (Oncogene, 2021)

Target: recombinant Flag-tagged SNF5 (UniProt Q12824 1-385)
Test: pull-down

Chain of recombinant Flag-tagged SNF5 (Q12824 whole entry): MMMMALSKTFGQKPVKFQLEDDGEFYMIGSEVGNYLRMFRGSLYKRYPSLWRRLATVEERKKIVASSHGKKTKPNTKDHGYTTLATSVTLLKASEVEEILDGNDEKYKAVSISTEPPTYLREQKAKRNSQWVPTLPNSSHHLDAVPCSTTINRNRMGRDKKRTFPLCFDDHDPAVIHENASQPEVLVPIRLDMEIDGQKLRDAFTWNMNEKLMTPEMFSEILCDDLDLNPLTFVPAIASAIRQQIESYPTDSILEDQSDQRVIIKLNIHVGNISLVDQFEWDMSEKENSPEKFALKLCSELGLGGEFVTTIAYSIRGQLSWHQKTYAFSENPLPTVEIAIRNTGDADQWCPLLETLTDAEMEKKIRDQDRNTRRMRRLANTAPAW

| Binder | binding result |
| --- | --- |
| recombinant Sumo-tagged SWIRM (amino acids 417–580 of BAF155) (domain or fragment) TAGGKEDEDPAKGDQSRSVDLGEDNVTEQTNHIIIPSYASWFDYNCIHVIERRALPEFFNGKNKSKTPEIYLAYRNFMIDTYRLNPQEYLTSTACRRNLTGDVCAVMRVHAFLEQWGLVNYQVDPESRPMAMGPPPTPHFNVLADTPSGLVPLHLRSPQVPAAQ | binds |
| recombinant SWIRM domain (amino acids 417–546 of BAF155) (domain or fragment) TAGGKEDEDPAKGDQSRSVDLGEDNVTEQTNHIIIPSYASWFDYNCIHVIERRALPEFFNGKNKSKTPEIYLAYRNFMIDTYRLNPQEYLTSTACRRNLTGDVCAVMRVHAFLEQWGLVNYQVDPESRPM | binds |
